The supplement of paper PMC11246515
± gives the standard deviation of the averaged measurements.

Experiment: total protein half-life in vivo (active degradation + dilution); higher = more stable protein
[1] = E. coli NCM3722 delta-clpP delta-lon delta-hslV, growth: N-lim chemostat, doubling time 6 h
[2] = E. coli NCM3722 delta-hslV, growth: N-lim chemostat, doubling time 6 h
[3] = E. coli NCM3722 delta-lon, growth: N-lim chemostat, doubling time 6 h
[4] = E. coli NCM3722 delta-smpB, growth: N-lim chemostat, doubling time 6 h
[5] = wild type E. coli NCM3722, growth: C-lim chemostat, doubling time 3 h
[6] = wild type E. coli NCM3722, growth: C-lim chemostat, doubling time 6 h
[7] = wild type E. coli NCM3722, growth: N-lim chemostat, doubling time 6 h
[8] = wild type E. coli NCM3722, growth: N-lim chemostat, doubling time 12 h
[9] = wild type E. coli NCM3722, growth: P-lim chemostat, doubling time 12 h
[10] = E. coli NCM3722 delta-clpP, growth: N-lim chemostat, doubling time 6 h
[11] = wild type E. coli NCM3722, growth: C-lim chemostat, doubling time 12 h
[12] = wild type E. coli NCM3722, growth: P-lim chemostat, doubling time 6 h

Sequence: MKKKRPVLQDVADRVGVTKMTVSRFLRNPEQVSVALRGKIAAALDELGYIPNRAPDILSNATSRAIGVLLPSLTNQVFAEVLRGIESVTDAHGYQTMLAHYGYKPEMEQERLESMLSWNIDGLILTERTHTPRTLKMIEVAGIPVVELMDSKSPCLDIAVGFDNFEAARQMTTAIIARGHRHIAYLGARLDERTIIKQKGYEQAMLDAGLVPYSVMVEQSSSYSSGIELIRQARREYPQLDGVFCTNDDLAVGAAFECQRLGLKVPDDMAIAGFHGHDIGQVMEPRLASVLTPRERMGSIGAERLLARIRGESVTPKMLDLGFTLSPGGSI [P0ACP5]
- total protein half-life in vivo [1]: 6.42 ± 0.18 h
- total protein half-life in vivo [2]: 5.79 ± 0.47 h
- total protein half-life in vivo [3]: 5.99 ± 1 h
- total protein half-life in vivo [4]: 5.75 ± 0.31 h
- total protein half-life in vivo [5]: > 4 h
- total protein half-life in vivo [6]: 6.6 ± 0.52 h
- total protein half-life in vivo [7]: 6.14 ± 0.46 h
- total protein half-life in vivo [8]: 14.4 ± 1.9 h
- total protein half-life in vivo [9]: > 16 h

Sequence: MTVETQLNPTQPVNQQIYRILRRDIVHCLIAPGTPLSEKEVSVRFNVSRQPVREAFIKLAENGLIQIRPQRGSYVNKISMAQVRNGSFIRQAIECAVARRAASMITESQCYQLEQNLHQQRIAIERKQLDDFFELDDNFHQLLTQIADCQLAWDTIENLKATVDRVRYMSFDHVSPPEMLLRQHLDIFSALQKRDGDAVERAMTQHLQEISESVRQIRQENSDWFSEE [P0ACM2]
- total protein half-life in vivo [1]: 6.15 ± 0.24 h
- total protein half-life in vivo [10]: 7.72 h
- total protein half-life in vivo [2]: 5.98 ± 0.4 h
- total protein half-life in vivo [3]: 5.9 ± 0.9 h
- total protein half-life in vivo [4]: 4.12 ± 1.4 h
- total protein half-life in vivo [5]: 3.42 ± 0.53 h
- total protein half-life in vivo [6]: 6.44 ± 1.2 h
- total protein half-life in vivo [11]: 10.2 ± 0.65 h
- total protein half-life in vivo [7]: 5.71 ± 0.13 h
- total protein half-life in vivo [8]: 11.7 ± 1.3 h
- total protein half-life in vivo [12]: 5.18 ± 0.51 h
- total protein half-life in vivo [9]: 9.7 ± 1.7 h

Sequence: MTAPLTLLIVEDETPLAEMHAEYIRHIPGFSQILLAGNLAQARMMIERFKPGLILLDNYLPDGRGINLLHELVQAHYPGDVVFTTAASDMETVSEAVRCGVFDYLIKPIAYERLGQTLTRFRQRKHMLESIDSASQKQIDEMFNAYARGEPKDELPTGIDPLTLNAVRKLFKEPGVQHTAETVAQALTISRTTARRYLEYCASRHLIIAEIVHGKVGRPQRIYHSG [P0AEF4]
- total protein half-life in vivo [1]: 4.85 h
- total protein half-life in vivo [10]: 3.389 ± 0.03 h
- total protein half-life in vivo [2]: 3.43 h
- total protein half-life in vivo [4]: 3.22 h
- total protein half-life in vivo [5]: 2.24 h
- total protein half-life in vivo [6]: 5.33 h
- total protein half-life in vivo [11]: 8.21 h
- total protein half-life in vivo [7]: 3 ± 0.62 h
- total protein half-life in vivo [8]: 5.34 ± 0.18 h
- total protein half-life in vivo [12]: 3.33 ± 0.5 h
- total protein half-life in vivo [9]: 7.63 ± 0.19 h

Sequence: MLEMLMQWYRRRFSDPEAIALLVILVAGFGIIFFFSGLLAPLLVAIVLAYLLEWPTVRLQSIGCSRRWATSIVLVVFVGILLLMAFVVLPIAWQQGIYLIRDMPGMLNKLSDFAATLPRRYPALMDAGIIDAMAENMRSRMLTMGDSVVKISLASLVGLLTIAVYLVLVPLMVFFLLKDKEQMLNAVRRVLPRNRGLAGQVWKEMNQQITNYIRGKVLEMIVVGIATWLGFLLFGLNYSLLLAVLVGFSVLIPYIGAFVVTIPVVGVALFQFGAGTEFWSCFAVYLIIQALDGNLLVPVLFSEAVNLHPLVIILSVVIFGGLWGFWGVFFAIPLATLIKAVIHAWPDGQIAQE [P0AFI9]
- total protein half-life in vivo [1]: > 8 h
- total protein half-life in vivo [4]: > 8 h
- total protein half-life in vivo [5]: > 4 h
- total protein half-life in vivo [6]: 6.12 ± 0.64 h
- total protein half-life in vivo [11]: 12.2 ± 0.49 h
- total protein half-life in vivo [8]: 10.4 ± 1.8 h

Sequence: MRQTKTGILLANLGTPDAPTPEAVKRYLKQFLSDRRVVDTSRLLWWPLLRGVILPLRSPRVAKLYASVWMEGGSPLMVYSRQQQQALAQRLPEMPVALGMSYGSPSLESAVDELLAEHVDHIVVLPLYPQFSCSTVGAVWDELARILARKRSIPGISFIRDYADNHDYINALANSVRASFAKHGEPDLLLLSYHGIPQRYADEGDDYPQRCRTTTRELASALGMAPEKVMMTFQSRFGREPWLMPYTDETLKMLGEKGVGHIQVMCPGFAADCLETLEEIAEQNREVFLGAGGKKYEYIPALNATPEHIEMMANLVAAYR
- total protein half-life in vivo [10]: 6.11 ± 0.13 h
- total protein half-life in vivo [2]: 6.43 ± 0.78 h
- total protein half-life in vivo [3]: 5.98 ± 0.68 h
- total protein half-life in vivo [4]: 5.63 ± 0.32 h
- total protein half-life in vivo [5]: 2.96 ± 0.033 h
- total protein half-life in vivo [6]: 6.24 ± 0.92 h
- total protein half-life in vivo [11]: 10.5 ± 2.5 h
- total protein half-life in vivo [7]: 5.33 ± 0.98 h
- total protein half-life in vivo [8]: 12.1 ± 0.19 h
- total protein half-life in vivo [12]: 5.73 ± 0.36 h
- total protein half-life in vivo [9]: 12.2 ± 1.5 h

Sequence: MKQPGEELQETLTELDDRAVVDYLIKNPEFFIRNARAVEAIRVPHPVRGTVSLVEWHMARARNHIHVLEENMALLMEQAIANEGLFYRLLYLQRSLTAASSLDDMLMRFHRWARDLGLAGASLRLFPDRWRLGAPSNHTHLALSRQSFEPLRIQRLGQEQHYLGPLNGPELLVVLPEAKAVGSVAMSMLGSDADLGVVLFTSRDASHYQQGQGTQLLHEIALMLPELLERWIERV
- total protein half-life in vivo [1]: 5.46 ± 0.28 h
- total protein half-life in vivo [2]: 1.73 ± 0.75 h
- total protein half-life in vivo [3]: 1.21 ± 0.07 h
- total protein half-life in vivo [4]: 0.944 ± 0.016 h
- total protein half-life in vivo [5]: 1.4 ± 0.051 h
- total protein half-life in vivo [6]: 2.35 ± 0.43 h
- total protein half-life in vivo [11]: 2.74 ± 0.45 h
- total protein half-life in vivo [7]: 1.33 h
- total protein half-life in vivo [8]: 1.56 h
- total protein half-life in vivo [12]: 2.18 ± 0.26 h
- total protein half-life in vivo [9]: 3.12 ± 1 h

Sequence: MAINFSPKVGEILECNFGNYPVSQNGPFSTTYYDGRIPPEMIKNRLVVVLNGKINGNACIVVPLSTTRDQDKLKRGMHVEIASNVINDLQFFDQQIRWAKADLVQQVSRNRLNRARTYRGYLNQCLPHELVADIQRAVIKSINAISLIN
- total protein half-life in vivo [6]: 6.12 h
- total protein half-life in vivo [11]: 8.7 ± 2 h
- total protein half-life in vivo [12]: 4.05 h
- total protein half-life in vivo [9]: 8.56 ± 0.1 h

Sequence: MNGTIYQRIEDNAHFRELVEKRQRFATILSIIMLAVYIGFILLIAFAPGWLGTPLNPNTSVTRGIPIGVGVIVISFVLTGIYIWRANGEFDRLNNEVLHEVQAS [P0AF54]
- total protein half-life in vivo [6]: 5.84 ± 0.1 h
- total protein half-life in vivo [11]: 8.72 ± 0.83 h
